The text below walks through data of article doi:10.1101/2024.10.23.619882.

Holding throughout (assay): pull-down
Assay [1] deals with EGFP-tagged NHSL1-F1 with both FP4 motifs mutated (human).
Assay [2] addresses EGFP-tagged NHSL1-F1 with the two Abi binding sites mutated (human).
Assay [3] addresses EGFP-tagged NHSL1-F1 with all 11 EndoA2 binding sites mutated (human).
Assay [4] concerns the target EGFP-tagged NHSL1-F1 with all 11 EndoA2 binding sites and both FP4 motifs mutated (human).
Assay [5] deals with EGFP-tagged NHSL1-F1 with the 9 EndoA2 sites that do not bind Abi mutated (human).

On to “Myc-tagged wild-type EndoA2 (endophilin A2) (from UniProt O35964 1-368) (natural protein)”, for which the fold reduction in binding against wild-type NHSL1 in assay [1] is 2 fold; in assay [2], 5 fold; in assay [3], 5 fold; in assay [4], 5 fold; in assay [5], 5 fold.
